Laboratory results as given in US6348573B1, “Compositions and methods for identifying apoptosis signaling pathway inhibitors and activators” (The Regents of the University of Michigan, priority 1998, dated 2002).

How the values were obtained:
[1] = molecular target: RICK (Homo sapiens, UniProt O43353); assay: Autophosphorylation of RICK; conditions: immunoprecipitated from 293T cells, [γ-32P]ATP
[2] = molecular target: T1, FADD (Homo sapiens, UniProt Q13158); assay: In vitro phosphorylation of recombinant FADD by RICK immunoprecipitates; assay type: biochemical; conditions: immunoprecipitates from 293T cells, 5 μM [γ-32P]ATP
T1 construct: made in house
T1 sequence (Q13158 1-208): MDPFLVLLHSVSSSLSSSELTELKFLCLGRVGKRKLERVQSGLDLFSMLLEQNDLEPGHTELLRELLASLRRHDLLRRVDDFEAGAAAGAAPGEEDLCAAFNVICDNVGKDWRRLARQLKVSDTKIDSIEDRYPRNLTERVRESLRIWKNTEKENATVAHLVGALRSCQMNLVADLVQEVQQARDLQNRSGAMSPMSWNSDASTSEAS
Source text: CIPERK proteins in total lysate were detected by immunoblotting with mAb to Flag (middle panel). Recombinant FADD on the same filter used in (A) was detected by immunoblotting, with rabbit polyclonal anti-(His)6 antibody (lower panel). Note CIPERK was autophosphorylated. The estimated molecular size is shown on the left [293T cells were transfected with vector control or plasmid expressing Flag-CIPERK (WT) or Flag-CIPERK-K38M (mt), and then CIPERK proteins were immunoprecipitated by mAb to Flag and incubated with recombinant FADD and 5 μM [γ-^32P]ATP].

RICK, sequence (O43353 with tags, fused parts or gaps): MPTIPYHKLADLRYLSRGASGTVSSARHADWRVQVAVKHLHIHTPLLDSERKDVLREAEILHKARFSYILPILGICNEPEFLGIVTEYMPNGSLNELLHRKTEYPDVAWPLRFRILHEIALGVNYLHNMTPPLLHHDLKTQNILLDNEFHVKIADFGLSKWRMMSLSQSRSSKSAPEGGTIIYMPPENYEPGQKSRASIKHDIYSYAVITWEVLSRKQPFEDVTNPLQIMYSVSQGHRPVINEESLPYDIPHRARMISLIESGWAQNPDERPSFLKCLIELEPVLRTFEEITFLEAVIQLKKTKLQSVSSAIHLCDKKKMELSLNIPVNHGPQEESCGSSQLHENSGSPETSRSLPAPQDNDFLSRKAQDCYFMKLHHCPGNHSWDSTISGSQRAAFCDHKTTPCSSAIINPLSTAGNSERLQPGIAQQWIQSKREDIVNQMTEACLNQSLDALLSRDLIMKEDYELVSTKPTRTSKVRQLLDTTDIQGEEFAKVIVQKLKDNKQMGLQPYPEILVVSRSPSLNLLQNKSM

For “RICK-K38M: RICK ATP-binding site mutant, lysine at position 38 replaced by methionine”, the auto-phosphorylation in vitro [1] was “dramatically decreased” and the “phosphorylation of recombinant FADD” value [2] was “did not”.
